Results: patent US20190224291A1 (GENOIMMUNE THERAPEUTICS, published 2019)
Each block holds one binder with its values, some of them ahead of it.

Experiments:
HLA-A0201 on T2 cells [1] = molecular target: T1, HLA-A0201 on T2 cells (human); experiment: T2 cell peptide binding assay, flow cytometry with FITC anti-HLA-A0201, peptide 100 uM
T1 construct: MHC class I on TAP-deficient T2 cells; also called HLA-A2; HLA-A0201 molecule
Experimental: (§1) Cells were collected by centrifugation of the cell culture at 200 g for 5 minutes. The collected cells were washed twice with PBS, and then directly incubated with FITC-conjugated anti-HLA-A0201 monoclonal antibody at 4° C. for 30 minutes. The mean fluorescence intensity (MFI) was then detected and analyzed by flow cytometer (BD FACSJazz™) and its software. The fluorescence index (FI) was calculated by using the following formula:

HLA-A0201 on T2 cells [2] = molecular target: T1, HLA-A0201 on T2 cells; experiment: T2 cell peptide binding assay, fluorescence index = (MFI sample - MFI background)/MFI background, peptide 100 uM
Experimental: as §1

Average fluorescence intensity (HLA-A0201 on T2 cells [1]): 772
FI (HLA-A0201 on T2 cells [2]): 2.38
B1: wild-type peptide FMVDGSWSI (peptide)
peptide: FMVDGSWSI
notes: Synthetic peptide, purity >90%

Average fluorescence intensity (HLA-A0201 on T2 cells [1]): 701
FI (HLA-A0201 on T2 cells [2]): 2.07
B2: variant peptide FLVDGFWSI (peptide)
peptide: FLVDGFWSI
notes: Synthetic peptide

Average fluorescence intensity (HLA-A0201 on T2 cells [1]): 664
FI (HLA-A0201 on T2 cells [2]): 1.91
B3: variant peptide FLVDGFWSL (peptide)
peptide: FLVDGFWSL
notes: Synthetic peptide

Average fluorescence intensity (HLA-A0201 on T2 cells [1]): 721
FI (HLA-A0201 on T2 cells [2]): 2.16
B4: variant peptide FMVDGFWSV (peptide)
peptide: FMVDGFWSV
notes: Synthetic peptide

Average fluorescence intensity (HLA-A0201 on T2 cells [1]): 642
FI (HLA-A0201 on T2 cells [2]): 1.81
B5: variant peptide FLVDGFWSV (peptide)
peptide: FLVDGFWSV
notes: Synthetic peptide

Average fluorescence intensity (HLA-A0201 on T2 cells [1]): 748
FI (HLA-A0201 on T2 cells [2]): 2.28
B6: variant peptide FMVDGFWSL (peptide)
peptide: FMVDGFWSL
notes: Synthetic peptide
